For assay [1], the target named is ΔN-terminal GCN2 HRSL, mutant Δ(V996-N1009) of Kluyveromyces marxianus GCN2 HRSL (Kluyveromyces marxianus). The experiment in a line: SEC. (Size exclusion chromatography separates by hydrodynamic size, large species first.)
In assay [2] the target is Kluyveromyces marxianus GCN2 HRSL domain (residues 996-1511) (Kluyveromyces marxianus). The experiment in a line: SEC.

Broadly, the stoichiometry N is a count of units in the complex or per binding partner. “ΔN-terminal GCN2 HRSL, mutant Δ(V996-N1009) of Kluyveromyces marxianus GCN2 HRSL (domain or fragment)”: the stoichiometry N in assay [1] was determined as 2. In the case of “Kluyveromyces marxianus GCN2 HRSL domain (residues 996-1511) (domain or fragment)”, the stoichiometry N in assay [2] came out at 2.

Values taken from article doi:10.1101/2024.04.24.591037.
